The values below come from US20090281024A1.

Experiment [1] deals with MAT CR12 (matriptase CR pair 1-2) (human) (UniProt Q9Y5Y6). Briefly: relative binding signal under isomolar conditions on MAT CR12 (heading of the figure); solid-phase binding assay.
Experiment [2] addresses LRP2 CR89 Y1042W V1047D (human) (UniProt P98164). As to the kind of experiment: solid-phase assay, coated CR protein.
Experiment [3] addresses LRP2 CR89 Y1042W V1047D R1088D (human) (UniProt P98164). Briefly: solid-phase assay, coated CR protein.

Chain of LRP2 CR89 Y1042W V1047D (human) (P98164 1022-1105 Y1043W/V1048D limits assumed): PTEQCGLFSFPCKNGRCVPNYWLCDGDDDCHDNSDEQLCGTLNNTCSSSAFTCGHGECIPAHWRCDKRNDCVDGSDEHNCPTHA
Chain of MAT CR12 (matriptase CR pair 1-2) (human) (Q9Y5Y6 452-524 limits assumed): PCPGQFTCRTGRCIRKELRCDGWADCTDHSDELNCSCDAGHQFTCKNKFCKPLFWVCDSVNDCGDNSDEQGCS
Chain of RAP d3 (wild-type third domain of the receptor-associated protein) (P30533 235-353): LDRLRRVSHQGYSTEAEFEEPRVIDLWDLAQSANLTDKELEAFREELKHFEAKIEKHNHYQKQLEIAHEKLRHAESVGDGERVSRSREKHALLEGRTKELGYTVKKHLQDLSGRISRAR

Take “MatRAP1 N-42 (from UniProt P30533 277-353) (designed binder)”: the fnctn (relative binding signal under isomolar conditions) in experiment [1] was 0.65. As to “RAP d3 (wild-type third domain of the receptor-associated protein) (from UniProt P30533 235-353) (ligand)”, the % max bind in experiment [2] came to 11%; in experiment [3] it was 15%.
